Measurements: patent US20200392528A1, “IMPROVED PLANT EPSP SYNTHASES AND METHODS OF USE” (PIONEER HI-BRED INTERNATIONAL, INC., priority 2017, published 2020)
Substitutions are numbered along the chain they refer to. Names may count otherwise.

B1: Zm D2: maize EPSPS variant, SEQ ID NO: 10 (protein)
chain: MRGWEEIVLQPIKEISGTVKLPGSKSLSNRILLLAALSEGTTVVDNLLNSEDVHYMLGALRTLGLSVEHDKAAKRAVVVGCGGRFPVEDAKGEVQLFCGNAATAMRPLTAAVTAAGGNATYVLDGVPRMRERPIGDLVVGLKQLGADVDCFLGTDCPPVRVNGIGGLPGGKVKLSGSISSQYLSALLMAAPLALGDVEIEIIDKLISLPYVEMTLRLMERFGVKAEHSDSWDRFYIKGGQKYESPKNAYVEGDASSASYFLAGAAITGGTVTVEGCGTTSLQGDVKFAEVLEMMGAKVTWTETSVTVTGPPREPFGRKHLKAIDVNMNKMPDAAMTLAVVALFADGPTAIRDVASWRVKETERMVAIRTELTKLGASVEEGPDYCIITPPPKLNVTAIDTYGDHRMAMAFSLAACAEVPVTIRDPGCTRKTFPDYFDVLSTFVKN
modifications: Zea mays
B2: Zm D2-28: maize EPSPS variant, SEQ ID NO: 8 (protein)
chain: B1 chain with G3K, A36G, S38A, H227R, K241S, E243L, T303A, A354G, P391E
modifications: Zea mays
B3: Zm D2-82: maize EPSPS variant, SEQ ID NO: 6 (protein)
chain: B1 chain with G3K, A354G, R368C
modifications: Zea mays
B4: Zm D2-67: maize EPSPS variant, SEQ ID NO: 5 (protein)
chain: B1 chain with G3K, A354G
modifications: Zea mays
B5: Zm D2-64: maize EPSPS variant, SEQ ID NO: 7 (protein)
chain: B1 chain with G3K, H54L, R368C
modifications: Zea mays
B6: Zm D2-15: maize EPSPS variant, SEQ ID NO: 9 (protein)
chain: B1 chain with S38A, G92E, S228N, T308S, R368C
modifications: Zea mays
B7: Zm D2-68: maize EPSPS variant, SEQ ID NO: 4 (protein)
chain: B1 chain with G3K, S38A, H54L, E243L, R368C
modifications: Zea mays
B8: Zm D2-3P124: maize EPSPS variant, SEQ ID NO: 3; D2-124 has 18 mutations (protein)
chain: B1 chain with G3K, H54G, K71E, K224R, A354G, A416G
modifications: Zea mays
notes: D2-124 has 18 mutations
B9: G102A: maize EPSPS with G102A mutation (G101A when numbered without N-terminal Met) (protein)
chain: MAGAEEIVLQPIKEISGTVKLPGSKSLSNRILLLAALSEGTTVVDNLLNSEDVHYMLGALRTLGLSVEADKAAKRAVVVGCGGKFPVEDAKEEVQLFLGNAATAMRPLTAAVTAAGGNATYVLDGVPRMRERPIGDLVVGLKQLGADVDCFLGTDCPPVRVNGIGGLPGGKVKLSGSISSQYLSALLMAAPLALGDVEIEIIDKLISIPYVEMTLRLMERFGVKAEHSDSWDRFYIKGGQKYKSPKNAYVEGDASSASYFLAGAAITGGTVTVEGCGTTSLQGDVKFAEVLEMMGAKVTWTETSVTVTGPPREPFGRKHLKAIDVNMNKMPDVAMTLAVVALFADGPTAIRDVASWRVKETERMVAIRTELTKLGASVEEGPDYCIITPPEKLNVTAIDTYDDHRMAMAFSLAACAEVPVTIRDPGCTRKTFPDYFDVLSTFVKN
modifications: Zea mays
B10: Zm native: native maize EPSPS with added N-terminal Met, SEQ ID NO: 1, reference EPSPS sequence (protein)
chain: B9 chain with A102G
modifications: Zea mays

Test system: maize EPSPS
Assay: kcat gly / kgly: enzyme turnover under application conditions (30 μM PEP and S3P, 1 mM glyphosate), phosphate release coupled to MESG
Format: biochemical
Conditions: Table 2; 30 μM PEP and S3P, 1 mM glyphosate, pH 7.0
Experimental: A more straight-forward, accurate and meaningful parameter is one in which one rate measurement is performed under presumed in vivo conditions, if known. To establish a set of conditions that mimic those under which the mutated enzyme needs to perform, the concentrations of PEP and S3P were set low (30 uM, subject to the sensitivity of assay conditions) to approach the presumed intracellular concentrations (˜15 uM, the approximate values of KM for both PEP and S3P). Glyphosate is included at 1 mM. The pH is set at 7.0 and ionic strength at 100 mM KCl, also to mimic known in vivo conditions. Ethylene glycol is present at 5% (v/v) to approximate the dielectric constant of intracellular fluid. The parameter is termed “enzyme turnover under application conditions”, which is herein shortened to “kcat gly”. The conventional formatting of the expression “kcat” is not used, to avoid this term being characterized as a standard kinetic constant.
(§1) EPSPS activity was determined by quantifying the phosphate generated from the EPSPS reaction. Release of inorganic phosphate was coupled to its reaction with 2-amino-6-mercapto-7-methylpurine ribonucleoside (MESG), catalyzed by purine nucleoside phosphorylase, according to previously described protocols. To determine the kcat gly, enzyme preparations were normalized to 0.1 mg/ml and four- to six-microliter aliquots of normalized enzyme were added to the wells of a low UV-absorbing 96-well assay plate (Greiner UV-Star). Reactions were started with the addition of 2×147 μl of reaction mixture containing 25 mM Hepes, pH 7.0, 100 mM KCl, 5% ethylene glycol, 30 μM each of PEP and S3P, 0.15 mM MESG, 1.5 U/ml purine nucleoside phosphorylase (Sigma N8264) and 1 mM glyphosate. Absorbance was monitored at 4 sec intervals for 50 sec with a Spectramax plate reader (Molecular Devices). […] Division by the enzyme concentration (0.04 to 0.1 uM, depending on activity) yields “kcat gly” in units of min^−1.
(§2) Approximately 30 substitutions were designed into each library. Assuming an average incorporation rate of six substitutions per variant, the theoretical size of such libraries is ˜7×10^5. Libraries were screened using methods described previously and the enhanced method described in Example 2. The number of colony-forming units plated and screened was in the range of 50 to 100% of the theoretical size. Up to 200 colonies per library were picked for evaluation of the expressed variant. Proteins were purified as described previously in PCT/US2016/054399, incorporated herein by reference. Protein concentration was determined by measuring optical density at 280 nm. The extinction coefficient of native maize EPSPS (0.676 OD/mg/ml) was calculated by vNTI and used to convert OD280 to mg/ml. Kinetic parameters were determined as described in Example 1.
A customized parameter for predicting performance in the treated plant that would be a more accurate representation than kcat/Km*Ki. […] However, kcat/Km*Ki may be inadequate for predicting the reaction velocity under the conditions of the application (plants sprayed with glyphosate) because it may neglect concentrations of substrate and inhibitor, factors that are not intrinsic to the enzyme, but on which the reaction rate depends. Therefore, libraries derived from C1 on in FIG. 2 were evaluated with a single rate measurement designed to take all factors in the rate equation for competitive inhibition into account. […] Glyphosate was included at 1 mM, a concentration attainable in tissues, especially meristems, receiving metabolite flow from treated leaves. The pH (7.0), ionic strength (100 mM KCl) and co-solvent concentration (5% ethylene glycol) were also intended to mimic in vivo conditions. The unit for the parameter is reaction rate (μM·min^−1) per enzyme concentration (μM), or min^−1, describing the enzyme turnover under application conditions, which we abbreviate as “kgly”. […]

| Molecule | kcat gly [s⁻¹] |
| --- | --- |
| B1 | 1.72 |
| B2 | 2 |
| B3 | 2.07 |
| B4 | 1.98 |
| B5 | 1.68 |
| B6 | 1.7 |
| B7 | 1.88 |
| B8 | 2.2 |
| B9 | 0.203 |
| B10 | 0 |

Same assay, conditions: Table 5; maize variants

| Molecule | kcat gly [s⁻¹] |
| --- | --- |
| B1 | 1.9 |
| B4 | 2.3 |

Same assay, conditions: Table 5; ratio of kcat gly, maize variant to rice ortholog

| Molecule | Zm/Os |
| --- | --- |
| B1 | 1.28 |
| B4 | 1.35 |

Same assay, conditions: enzyme turnover at 30 μM PEP and S3P, 1 mM glyphosate

| Molecule | kgly [min⁻¹] |
| --- | --- |
| B8 | 175 ± 2.5 |
| B9 | 25.7 ± 0.2 |

Test system: maize EPSPS
Assay: substrate saturation kinetic analysis (kcat, KM PEP, KI glyphosate)
Format: biochemical
Conditions: not given
Experimental: as §1, §2
Combinatorial shuffling, maize native EPSPS—The mutations discovered were used to construct a combinatorial library designed to explore combinations of the desensitizing mutations in novel sequence contexts provided by the newly identified neutral mutations. Note that the amino acid position numbering in this Example 10 refers to the relative position of native maize EPSPS without the N-terminal Met. Therefore, G101A in this Example would be G102A in reference to SEQ ID NO: 1, wherein the maize EPSPS sequence has a Met added at the N-terminal. The diversity used was the same with the addition of G101A, T102 (IALGV) and P106(WA). In all, 43 substitutions at 29 positions were selected. The library was synthesized entirely from oligonucleotides, using the known technique of synthetic shuffling and was termed NatFS (Native, fully synthetic). The vector DNA of the library was transformed into the BL21(DE3) Tuner-AroA knockout strain and the cells were plated onto M9 medium containing either 30 mM glyphosate and 30 μM of the lac operon inducer isopropyl β-D-1-thiogalactopyranoside (IPTG) or 50 mM glyphosate and no IPTG. The 184 colonies that grew on either plate were picked and subjected to a second tier of screening in which EPSPS proteins were purified and activity measured at high (200 μM) and low (50 μM) PEP and S3P, with or without 10 μM glyphosate. Selected variants were subjected to substrate saturation kinetic analysis.

| Molecule | kcat/KM*KI |
| --- | --- |
| B10 | 11.8 |

Same assay, conditions: Ki for glyphosate

| Molecule | Ki [µM] |
| --- | --- |
| B8 | 893 ± 53 |
| B9 | 1930 ± 40 |
| B10 | 0.066 ± 0.003 |

Same assay, conditions: Table 2

| Molecule | kcat [s⁻¹] | kcat/KM*KI |
| --- | --- | --- |
| B1 | 6.07 | 18100 |
| B2 | 8.03 | 21500 |
| B3 | 10.4 | 30900 |
| B4 | 9.47 | 27100 |
| B5 | 7.97 | 22900 |
| B6 | 7.87 | 36400 |
| B7 | 9.23 | 37400 |
| B8 | 9.88 | 22710 |
| B9 | 10.2 | 3176 |
| B10 | 24.4 | 11.8 |

Same assay, conditions: Table 2; KM for PEP; read-out: KM

| Molecule | Km [µM] |
| --- | --- |
| B1 | 20 |
| B2 | 15.8 |
| B3 | 26.3 |
| B4 | 20 |
| B5 | 19.6 |
| B6 | 21.8 |
| B7 | 22.1 |
| B8 | 34.7 |
| B9 | 315 |
| B10 | 15.7 |

Same assay, conditions: Table 2; discrimination between glyphosate and PEP

| Molecule | KI/KM |
| --- | --- |
| B1 | 49.7 |
| B2 | 44.5 |
| B3 | 49.4 |
| B4 | 47.7 |
| B5 | 47.9 |
| B6 | 77.1 |
| B7 | 67.5 |
| B8 | 38.3 |
| B9 | 5.11 |
| B10 | 0.008 |

Same assay, conditions: Table 2; inhibitor glyphosate

| Molecule | Ki [µM] |
| --- | --- |
| B1 | 993 |
| B2 | 703 |
| B3 | 1300 |
| B4 | 955 |
| B5 | 938 |
| B6 | 1680 |
| B7 | 1490 |
| B8 | 1330 |
| B9 | 1610 |
| B10 | 0.13 |

Same assay, conditions: apparent Km; PEP present at 10 times its Km; read-out: Km S3P

| Molecule | Km [µM] |
| --- | --- |
| B8 | 11.1 ± 0.7 |
| B9 | 84 ± 2.5 |
| B10 | 13.2 ± 0.6 |

Same assay, conditions: apparent Km; S3P present at 10 times its Km; read-out: Km PEP

| Molecule | Km [µM] |
| --- | --- |
| B8 | 18.1 ± 0.7 |
| B9 | 333 ± 26 |
| B10 | 9.5 ± 0.3 |

Same assay, conditions: approximate value; read-out: Km for S3P

| Molecule | Km [µM] |
| --- | --- |
| B10 | 10 to 15 |

Same assay, conditions: calculated with Km for PEP

| Molecule | kcat/Km*Ki |
| --- | --- |
| B8 | 31130 |
| B9 | 5780 |
| B10 | 11 |

Same assay, conditions: glyphosate; text b235

| Molecule | Ki [µM] |
| --- | --- |
| B10 | 0.066 |

Same assay, conditions: maize EPSPS variants

| Molecule | kcat [s⁻¹] |
| --- | --- |
| B8 | 10.5 ± 0.083 |
| B9 | 16.67 ± 0.583 |
| B10 | 27.17 ± 0.233 |

Same assay, conditions: read-out: Km for PEP

| Molecule | Km [µM] |
| --- | --- |
| B10 | 10 to 15 |

Same assay, conditions: relative to native EPSPS

| Molecule | increase in Ki for glyphosate | increase in Km for PEP [fold] |
| --- | --- | --- |
| B9 | 30,00 fold | 35 |

Same assay, conditions: text b176

| Molecule | KI/KM |
| --- | --- |
| B9 | 5.1 |
